Results from patent US20100056764A1 (Novo Nordisk, published 2010).
“And” between values parts separate entries of the source, which are not always exact repeats. Equal values may be shown once. Read-outs that look alike come from different tables or passages of the source.

T1: human NKG2D (hNKG2D) on the cell surface (human, UniProt P26718 1-216)
T1 construct: Carried by BaF/3 cells co-transfected with full-length NKG2D and DAP10, or naturally by human NK, CD8+ T and gamma-delta T cells (PBMC, whole blood); also called cell-surface NKG2D; NKG2D- and DAP10-expressing BaF/3 cells
T1 chain: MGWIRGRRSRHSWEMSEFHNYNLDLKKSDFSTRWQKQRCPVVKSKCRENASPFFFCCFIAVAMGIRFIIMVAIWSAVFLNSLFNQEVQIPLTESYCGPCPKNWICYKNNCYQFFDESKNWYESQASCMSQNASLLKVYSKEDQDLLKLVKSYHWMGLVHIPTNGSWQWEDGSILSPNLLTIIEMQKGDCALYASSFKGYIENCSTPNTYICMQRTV

T2: cynomolgous monkey NKG2D on NK, CD8+ T and gamma-delta T cells (cynomolgous monkey (Macaca fascicularis), UniProt P61252 1-216)
T2 construct: whole, on cells; Target on cynomolgous PBMC and whole blood cells; also called cynomologous NKG2D; cyno NKG2D
T2 sequence (looked up): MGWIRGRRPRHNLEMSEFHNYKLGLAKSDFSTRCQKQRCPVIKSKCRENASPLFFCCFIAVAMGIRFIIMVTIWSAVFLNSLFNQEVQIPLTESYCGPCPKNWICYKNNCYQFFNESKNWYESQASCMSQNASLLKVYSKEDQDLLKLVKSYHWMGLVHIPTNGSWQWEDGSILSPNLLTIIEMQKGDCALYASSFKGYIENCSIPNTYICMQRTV

T3: recombinant NKG2D-Fc protein (R&D Systems), immobilized on a Biacore CM5 chip (human, UniProt P26718 78-216)
T3 construct: also called NKG2D-hFc; hFc-NKG2D; not shown: Fc portion of the purchased fusion protein
T3 sequence: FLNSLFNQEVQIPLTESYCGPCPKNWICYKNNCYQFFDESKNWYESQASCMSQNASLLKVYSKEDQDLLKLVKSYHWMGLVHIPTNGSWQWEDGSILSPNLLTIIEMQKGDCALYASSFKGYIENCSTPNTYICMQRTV


What was measured:
[1] = target: T1, human NKG2D (hNKG2D) on the cell surface; assay: flow cytometry blocking assay on NKG2D/DAP10-expressing BaF/3 cells: pre-incubation with the antibody, then 1 µg MICA-mFc; y axis % remaining MICA-Fc binding
Description: (§1) Flow cytometry assays—MICA blockade. […] The cells were then analysed on a B&D FACSArray flow cytometer. The degree of reduction of MICA binding by preincubation was analysed as MFI (mean fluorescence intensity) of binding with pre-incubation in % of binding of MICA without preincubation.

[2] = target: T1, human NKG2D (hNKG2D) on the cell surface; assay: flow cytometry, NKG2D/DAP10 BaF/3 cells pre-incubated with antibody, then 1 µg MICA-mFc (competitor)
Description: as §1

[3] = target: T2, cynomolgous monkey NKG2D on NK, CD8+ T …; assay: flow cytometry, cynomolgous NK cells in PBMC, anti-human IgG4 detection
Description: (§2) Briefly, incubation with antibody was performed at 4° C. for 30 min followed by washing, then directly labelled secondary anti-hIgG4 antibody was added and incubated for 30 min at 4° C. along with antibodies specific for the various cell populations of interest, CD8, CD4, NK and γδ-T cells, then the cells were washed twice in PBS with 2% FCS and the red blood cell lysed. The cells were then analyzed by flow cytometry and binding to the different cell populations assessed.

[4] = target: T2, cynomolgous monkey NKG2D on NK, CD8+ T …; assay: flow cytometry, CD8 T cells; reference is 21F2 on human cells
Description: as §2

[5] = target: T1, human NKG2D (hNKG2D) on the cell surface; assay: flow cytometry, dose-response on NKG2D- and DAP10-expressing BaF/3 cells
[6] = target: T1, human NKG2D (hNKG2D) on the cell surface; assay: flow cytometry, human CD8 T cells in PBMC, anti-human IgG4 detection
Description: as §2

[7] = target: T3, recombinant NKG2D-Fc protein (R&D …); assay: SPR (Biacore), NKG2D-Fc immobilized on CM5 chip at 400 RU, antibody in solution, Langmuir fit
Description: Surface plasmon resonance measurements were performed on a Biacore 1000 upgrade apparatus (Biacore GE Healthcare; Biacore Upgrade CA0396) at 25° C. In all Biacore experiments HBS-EP buffer (Biacore GE Healthcare; BR-1001-88) served as running buffer and sensorgrams were analyzed with Biaevaluation 4.1 software.
Protein immobilisation. […] Recombinant NKG2D-Fc proteins were immobilized covalently to carboxyl groups in the dextran layer on a Sensor Chip CM5 (Biacore GE Healthcare; BR-1000-14). The sensor chip surface was activated with EDC/NHS (N-ethyl-N′-(3-dimethylaminopropyl)carbodiimidehydrochloride and N-hydroxysuccinimide (Biacore GE Healthcare; BR-1000-50)). […] Deactivation of the remaining activated groups was performed using 100 mM ethanolamine pH 8 (Biacore GE Healthcare; BR-1000-50).
[…] The resulting sensorgrams were analysed by global fitting using the Langmuir model. The dissociation constant (KD) was calculated as KD=kd/ka.

[8] = target: T2, cynomolgous monkey NKG2D on NK, CD8+ T …; assay: flow cytometry, NK cells; reference is 21F2 on human cells
Description: as §2

[9] = target: T2, cynomolgous monkey NKG2D on NK, CD8+ T …; assay: flow cytometry, cynomolgous gamma-delta T cells (Gd) in PBMC, anti-human IgG4 detection
Description: as §2

[10] = target: T1, human NKG2D (hNKG2D) on the cell surface; assay: cell-based or functional assay
[11] = target: T2, cynomolgous monkey NKG2D on NK, CD8+ T …; assay: flow cytometry, cynomolgous CD8 T cells in PBMC, anti-human IgG4 detection
Description: as §2

[12] = target: T2, cynomolgous monkey NKG2D on NK, CD8+ T …; assay: flow cytometry, gamma-delta T cells (Gd); reference is 21F2 on human cells
Description: as §2

[13] = target: T1, human NKG2D (hNKG2D) on the cell surface; assay: flow cytometry, human NK cells in PBMC, anti-human IgG4 detection
Description: as §2

[14] = target: T1, human NKG2D (hNKG2D) on the cell surface; assay: flow cytometry, human gamma-delta T cells (Gd) in PBMC, anti-human IgG4 detection
Description: as §2

[15] = target: T1, human NKG2D (hNKG2D) on the cell surface; assay: flow cytometry, NKG2D/DAP10 BaF/3 cells pre-incubated with antibody, then 1 µg MICA-mFc (competitor)
Description: as §1

| IC50 (read off the curve) [1] [pM] | Full blockade of 1 µg MICA-Fc (antibody concentration) [2] [µg/mL] | IC50 [2] [µg/mL] | EC50 [3] [µg/mL] | relative EC50, cynomolgous to human cells (%) [4] [%] | EC50 [5] | EC50 [6] [µg/mL] | Kd [7] [pM] | koff [7] [s⁻¹] | kon [7] [M⁻¹ s⁻¹] | relative EC50, cynomolgous to human cells (%) [8] [%] | EC50 [9] [µg/mL] | EC50 [11] [µg/mL] | relative EC50, cynomolgous to human cells (%) [12] [%] | EC50 [13] [µg/mL] | EC50 [14] [µg/mL] | IC50 [15] [pM] | Binder | EC50 (µg/ml), inhibition of NK cell killing of ULPB3-expressing target cells (51Cr release) [10] [µg/mL] |
| --- | --- | --- | --- | --- | --- | --- | --- | --- | --- | --- | --- | --- | --- | --- | --- | --- | --- | --- |
| ~2 |  |  |  |  |  |  |  |  |  |  |  |  |  |  |  |  | MS, fully human anti-hNKG2D monoclonal antibody, recombinantly expressed as IgG4 isotype (antibody, V domains shown, also called MS IgG4; MS (IgG4)) VH: QVHLQESGPGLVKPSETLSLTCTVSDDSISSYYWSWIRQPPGKGLEWIGHISYSGSANYNPSLKSRVTISVDTSKNQFSLKLSSVTAADTAVYYCANWDDAFNIWGQGTMVTVSS VL: not shown |  |
| ~4 | 0.16 | 0.0063 | 0.0475 | 71.9 | 0.033 µg/mL and 0.023 nM | 0.0605 | 77.9 | 0.000144 | 1.85e+06 | 66.7 | 0.0464 | 0.0435 | 81.1 | 0.0712 | 0.0572 | 4.8 | 21F2, fully human anti-hNKG2D monoclonal antibody, recombinantly expressed as IgG4 isotype (antibody, V domains shown, also called 21F2 IgG4; 21F2 (IgG4)) VH: EVQLVQSGAEVKEPGESLKISCKNSGYSFTNYWVGWVRQMPGKGLEWMGIIYPGDSDTRYSPSFQGQVTISADKSINTAYLQWSSLKASDTAMYYCGRLTMFRGIIIGYFDYWGQGTLVTVSS VL: EIVLTQSPATLSLSPGERATLSCRASQSVSSYLAWYQQKPGQAPRLLIYDASNRATGIPARFSGSGSGTDFTLTISSLEPEDFAVYYCQQRSNWPWTFGQGTKVEIKR | 0.021 |
